Our source for the K half values is publication PMC11002309.

The series has as its system PBRM1-BD4 WT. As to the kind of experiment: EMSA. To be noted: 20 uM chosen from titration to approximate EC50; 150 nM DNA, protein 0-50 uM; EMSA: 10.5 mM K3PO4 pH 7 (20 °C), 10 mM KCl, 1% v/v glycerol, 0.2 mM DTT; 1 h on ice; 5% 75:1 native gel in 0.2x TBE, 4 °C.

Substance Widom 601 DNA had a K half of 20 µM.
